{
  "source": "patent US20090047703A1",
  "molecular_target": "HERG-1b (human) (UniProt Q12809)",
  "assay": "cell-based or functional assay",
  "data": [
    {"substance": "HERG-1a N-Terminal Domain fused to eCFP", "values": [
      {"measurement": "deactivation kinetics, two-electrode voltage clamp in Xenopus oocytes", "value": 10, "unit": "fold"}
    ]}
  ]
}
